Data reported in paper PMC4578769, “Development of a Fluorescence-based Trypanosoma cruzi CYP51 Inhibition Assay for Effective Compound Triaging in Drug Discovery Programmes for Chagas Disease” (PLoS Neglected Tropical Diseases, 2015).

Substrate: N#Cc1cc2ccc(OCOCc3ccccc3)cc2oc1=O
Experiment: Michaelis-Menten kinetic determination of BOMCC O-dealkylation
Assay type: biochemical, Trypanosoma cruzi
Settings: other: 37 pmoles/mL T. cruzi CYP51 enzyme, 25-250 μM BOMCC, 37°C
Experimental: Incubations were pre-warmed at 37°C before addition of NADPH regenerating system. Production of CHC was measured at 1 minute intervals at 37°C (Exc 410 nm, Em 460 nm) for 10 minutes (Fig 3b). […] Assay conditions of 37 pmoles/mL of T. cruzi CYP51 in bactosomes and 100 μM BOMCC provided a good dynamic range of metabolism.

B1: T. cruzi CYP51 (Trypanosoma cruzi strain CL Brener) (protein)
chain: MFIEAIVLALTALILYSVYSVKSFNTTRPTDPPVYPVTVPFLGHIVQFGKNPLEFMQRCKRDLKSGVFTISIGGQRVTIVGDPHEHSRFFSPRNEILSPREVYTIMTPVFGEGVAYAAPYPRMREQLNFLAEELTIAKFQNFVPAIQHEVRKFMAENWKEDEGVINLLEDCGAMIINTACQCLFGEDLRKRLNARHFAQLLSKMESSLIPAAVFMPWLLRLPLPQSARCREARAELQKILGEIIVAREKEEASKDNNTSDLLGGLLKAVYRDGTRMSLHEVCGMIVAAMFAGQHTSTITTSWSMLHLMHPKNKKWLDKLHKEIDEFPAQLNYDNVMDEMPFAERCVRESIRRDPPLLMVMRMVKAEVKVGSYVVPKGDIIACSPLLSHHDEEAFPNPRLWDPERDEKVDGAFIGFGAGVHKCIGQKFALLQVKTILATAFREYDFQLLRDEVPDPDYHTMVVGPTLNQCLVKYTRKKKLPS
notes: ompA leader (N); host or cells: E. coli JM109 (membrane fraction, bactosomes)
- Km: 191 ± 55 µM
